This is an account of results in paper PMC10234888, “Upregulation of glycolytic enzyme PFKFB3 by deubiquitinase OTUD4 promotes cardiac fibrosis post myocardial infarction” (Journal of Molecular Medicine (Berlin, Germany), 2023).

Usually Kd stands for a measure of binding affinity in units of concentration.

The experiment has as its target T1, OTUD4 human recombinant protein (human, UniProt Q01804 1-1114).
T1 construct: deubiquitinase OTUD4, human, recombinant protein from Origene; No catalogue number is printed; also called deubiquitinase OTUD4; source: bought: Origene Technologies, Inc
T1 sequence (looked up): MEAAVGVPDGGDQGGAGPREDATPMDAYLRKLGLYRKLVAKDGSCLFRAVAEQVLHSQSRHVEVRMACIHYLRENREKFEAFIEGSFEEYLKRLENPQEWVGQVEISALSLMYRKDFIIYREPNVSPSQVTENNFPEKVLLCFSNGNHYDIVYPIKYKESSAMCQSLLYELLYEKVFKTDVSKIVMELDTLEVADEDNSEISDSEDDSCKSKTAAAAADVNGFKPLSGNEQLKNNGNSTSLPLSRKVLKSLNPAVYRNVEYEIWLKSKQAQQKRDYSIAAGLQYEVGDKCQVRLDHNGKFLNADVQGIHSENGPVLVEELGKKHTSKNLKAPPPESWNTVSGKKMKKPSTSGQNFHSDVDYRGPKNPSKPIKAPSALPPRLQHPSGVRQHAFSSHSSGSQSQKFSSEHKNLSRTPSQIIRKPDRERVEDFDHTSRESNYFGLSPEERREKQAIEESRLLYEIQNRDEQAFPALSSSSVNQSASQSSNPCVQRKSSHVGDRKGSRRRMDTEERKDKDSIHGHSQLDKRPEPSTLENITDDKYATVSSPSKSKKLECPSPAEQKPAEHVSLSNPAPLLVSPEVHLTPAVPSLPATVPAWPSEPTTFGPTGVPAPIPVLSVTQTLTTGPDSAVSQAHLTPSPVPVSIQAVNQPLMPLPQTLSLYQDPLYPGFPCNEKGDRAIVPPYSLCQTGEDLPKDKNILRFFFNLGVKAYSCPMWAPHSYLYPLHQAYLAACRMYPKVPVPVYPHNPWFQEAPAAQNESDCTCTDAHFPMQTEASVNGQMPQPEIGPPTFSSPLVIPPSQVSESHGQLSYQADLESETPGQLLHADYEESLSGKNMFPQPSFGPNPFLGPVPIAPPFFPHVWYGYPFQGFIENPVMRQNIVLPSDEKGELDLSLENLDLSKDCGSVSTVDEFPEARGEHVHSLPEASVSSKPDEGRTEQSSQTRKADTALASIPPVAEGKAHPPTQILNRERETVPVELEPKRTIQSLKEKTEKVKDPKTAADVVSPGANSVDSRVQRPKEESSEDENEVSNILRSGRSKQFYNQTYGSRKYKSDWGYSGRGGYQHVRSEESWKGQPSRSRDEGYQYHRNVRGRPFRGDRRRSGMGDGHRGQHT
The experiment in a line: SPR; Biacore T200; OTUD4 on a CM5 chip by amine coupling; various concentrations of PFKFB3 injected over the OTUD4 surface. Particulars: both partners purified. (SPR reads the build-up and loss of mass on a sensor chip optically.)

B1: human recombinant PFKFB3 protein (enzyme, UniProt Q16875 1-520, looked up)
chain: MPLELTQSRVQKIWVPVDHRPSLPRSCGPKLTNSPTVIVMVGLPARGKTYISKKLTRYLNWIGVPTKVFNVGEYRREAVKQYSSYNFFRPDNEEAMKVRKQCALAALRDVKSYLAKEGGQIAVFDATNTTRERRHMILHFAKENDFKAFFIESVCDDPTVVASNIMEVKISSPDYKDCNSAEAMDDFMKRISCYEASYQPLDPDKCDRDLSLIKVIDVGRRFLVNRVQDHIQSRIVYYLMNIHVQPRTIYLCRHGENEHNLQGRIGGDSGLSSRGKKFASALSKFVEEQNLKDLRVWTSQLKSTIQTAEALRLPYEQWKALNEIDAGVCEELTYEEIRDTYPEEYALREQDKYYYRYPTGESYQDLVQRLEPVIMELERQENVLVICHQAVLRCLLAYFLDKSAEEMPYLKCPLHTVLKLTPVAYGCRVESIYLNVESVCTHRERSEDAKKGPNPLMRRNSVTPLASPEPTKKPRINSFEEHVASTSAALPSCLPPEVPTQLPGQNMKGSRSSADSSRKH
notes: phosphofructokinase-2/fructose-2,6-bisphosphatase 3 (PFKFB3), human, recombinant protein from Origene; No catalogue number is printed; also called phosphofructokinase-2/fructose-2,6-bisphosphatase 3; source: bought: Origene
In the case of B1, the Kd is 250 nM.
